# Data taken from patent US9803013B2, “Biological materials and uses thereof” (BioInvent International AB, priority 2005, dated 2017).
# T1: ICAM-2 (Homo sapiens, UniProt P13598)
# T1 sequence (P13598 25-275): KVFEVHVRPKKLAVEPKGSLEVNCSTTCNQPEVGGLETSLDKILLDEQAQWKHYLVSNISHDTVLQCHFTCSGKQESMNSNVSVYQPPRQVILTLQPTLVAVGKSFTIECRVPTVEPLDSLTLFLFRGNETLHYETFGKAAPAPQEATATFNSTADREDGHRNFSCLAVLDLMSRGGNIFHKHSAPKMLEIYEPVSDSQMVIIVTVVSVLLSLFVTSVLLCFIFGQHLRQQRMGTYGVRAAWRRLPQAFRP
# B1: B11: fully human IgG1 antibody specific for ICAM-1; VH and VL sequences of FIG. 10 (SEQ ID NOs. 6 and 8) (antibody, listed as Homo sapiens, V domains shown)
# VH: EVQLLESGGGLVQPGGSLRLSCAASGFTFSNAWMSWVRQAPGKGLEWVAFIWYDGSNKYYADSVKGRFTISRDNSKNTLYLQMNSLRAEDTAVYYCARYSGWYFDYWGQGTLVTVSS
# VL: QSVLTQPPSASGTPGQRVTISCTGSSSNIGAGYDVHWYQQLPGTAPKLLIYDNNNRPSGVPDRFSGSKSGTSASLAISGLRSEDEADYYCQSYDSSLSAWLFGGGTKLTVLG
# What was measured:
# RPMI-8226 myeloma cells = test: Advanced disseminated MM model, i.v. grafted RPMI-8226 in SCID mice; format: in vivo, mouse; conditions: 2 mg/kg from five days after i.v. grafting; compared to bortezomib, lenalidomide, melphalan or dexamethasone
# Description: To assess the therapeutic potential of BI-505 for treatment of MM, the anti-myeloma effects of BI-505 were compared to current gold-standard treatment in disseminated experimental models of MM sharing characteristics with human disease. These models resemble the manifestation and progression of human MM disease in many respects, including tumor dissemination and establishment in bone marrow, and the appearance of osteolytic bone-lesions and hypercalcemia (Mitsiades et al., 2003; Yaccoby et al., 1998). Firstly, the anti-myeloma activity of BI-505 was compared with currently used treatments in an advanced disseminated MM model comprising RPMI-8226 myeloma cells. In this model, therapeutic treatment with 2 mg/kg BI-505 was started five days after intravenous grafting of MM cells to allow for homing and establishment of MM cells in bone marrow.
# All studies were conducted in accordance with guidelines of the Lund University Hospital, Sweden or University of Utah, Salt Lake City, USA following approval from the local ethical committee for animal care and use. […] The role of macrophages and NK cells for BI-505 in vivo antitumor activity was assessed using anti-asialo antibody treatment, clodronate liposome treatment or NK-cell deficient mice. […]
# ICAM-2 = biological target: T1, ICAM-2; test: Binding to recombinant ICAM family protein
# CL-01 B lymphoma cells = test: Mitochondrial membrane depolarisation assay (JC-1); format: cell-based, human; conditions: CL-01, JC-1 staining, 2 μg/ml IgG cross-linked, 6 h
# Protocol: FIG. 4A. […] Cells were incubated at 37° C. for 6 h and the effect of the antibody incubation was determined by two independent apoptosis assays. Cells were stained either by AV/PI (upper panel), similarly as described above, or by incubation with 5 μg/ml of the mitochondrial membrane depolarisation reagent JC-1 for 30 min at RT (lower panel). Induction of apoptosis is detectable by a decrease in the red (y-axis)/green (x-axis) fluorescence intensity ratio. (FIG. 4B) Histology section showing representative binding of B11 antibody to B lymphoma tissue. Cryo-preserved tissue obtained from a patient with Anaplastic Large Cell B Lymphoma was stained with B11 or FITC-8 (control) scFv antibody. Antibody binding was detected with DAB (brown colour). […] IgG B11 binding to the different cell populations was recorded in the FL4 channel.
# Mitochondrial membrane depolarisation was analysed as previously described (Kim et al., Mol. Biol. Cell (2004) 15:420-434). […] Cells were washed twice in ice-cold PBS and resuspended in […] PBS and analysed on a FACS Aria (BD Biosciences). The green and red fluorescence was collected through 494/518 nm (FL-1) and 595/615 nm (FL-2) bandpass filters, respectively. […]
molecule,measurement,setting,value
B1,survival and disease onset,RPMI-8226 myeloma cells,significantly enhanced survival and delayed disease onset
same,binding to recombinant protein,ICAM-2,not to ICAM-2 or ICAM-3
same,mitochondrial membrane depolarisation,CL-01 B lymphoma cells,induce mitochondrial membrane depolarisation
